In PMC4176334:

Columns and labels:
[1] = target: T1, M. tuberculosis RNAP core;SigJ (Mycobacterium tuberculosis;Mycobacterium tuberculosis H37Rv?) (UniProt P9WGZ1+P9WGY9+P9WGY7+P9WGY5+L0TCG5); assay: DNase I footprinting
[2] = target: T2, M. tuberculosis RNAP core;SigJ;RbpA (Mycobacterium tuberculosis;Mycobacterium tuberculosis H37Rv?;Mycobacterium tuberculosis) (UniProt P9WGZ1+P9WGY9+P9WGY7+P9WGY5+L0TCG5+P9WHJ5); assay: DNase I footprinting
[3] = target: T1, M. tuberculosis RNAP core;SigJ (Mycobacterium tuberculosis;Mycobacterium tuberculosis H37Rv?); assay: KMnO4 footprinting
[4] = target: T2, M. tuberculosis RNAP core;SigJ;RbpA (Mycobacterium tuberculosis;Mycobacterium tuberculosis H37Rv?;Mycobacterium tuberculosis); assay: KMnO4 footprinting
[5] = target: M. tuberculosis RNAP core;SigA;RbpA (Mycobacterium tuberculosis;Mycobacterium tuberculosis;Mycobacterium tuberculosis) (UniProt P9WGZ1+P9WGY9+P9WGY7+P9WGY5+P9WGI1+P9WHJ5); assay: EMSA
[6] = target: M. tuberculosis RNAP core;SigA (Mycobacterium tuberculosis;Mycobacterium tuberculosis) (UniProt P9WGZ1+P9WGY9+P9WGY7+P9WGY5+P9WGI1); assay: EMSA

Measured: binding

GCCCTCCCGCCGACCCATGCTGGAATTCATAACATCAAGGACGAGACAGCCCCGCCGAATGTGACAGCAACCGGCGATTTCAGCGCTCGGCGC (double strand) [sigIP promoter]
binds: [1] | [2] | [3] | [4]

TTGAGTTCTCAAACAACACGCTTGCTTGTTTCCGCCCGCTTCGGGGCAACCCTGCCAGTCTAATACAAATCCGGCAATGGAGTCAAGACCAGGTTCGGTCATCCATAGATATCCATAGGTGACCGTCGCCTAACAGCATACCCGTTCGAT (double strand) [rrnAP3 promoter]
binds: [5] | [6]
